The term IC50 denotes the concentration that gives 50% inhibition. Read a high IC50 as weaker potency. By Kd is commonly meant the equilibrium constant for the complex coming apart.

Data set [1] deals with CsnR (ROK-family transcriptional repressor, SSPG_04872) (Streptomyces lividans TK24). The experiment in a line: competition.
Data set [2] has the same test system. Description: EMSA. The conditions noted are these: 10 mM HEPES pH 7.9, 150 mM KCl, 10% glycerol, poly(dI-dC), room temperature. For orientation: In EMSA bound probe runs differently from free probe, usually more slowly.

On to “CCTCTTCTGGTAGGAAACTGTCCGATCAGT (double strand) [csnA-MM]”, for which, in data set [1] (competitor vs labeled csnA-WT, +2 and +6 mutations, lost most affinity, SE logIC50 0.33), the IC50 stood at 105 nM.
Sequence “CCTCTTCTGGTAGGAAACTGTCCTATCAGT (double strand) [csnA-M1]” registered a half-maximal inhibitory concentration (IC50) in data set [1] (competitor vs labeled csnA-WT, +2 mutation, SE logIC50 0.13) of 52.1 nM.
On to “CCTCTTCTGGTAGGAAACTTTCCGATCAGT (double strand) [csnA-M2]”, for which the IC50 in data set [1] (competitor vs labeled csnA-WT, +6 mutation, SE logIC50 0.08) was determined as 2.7 nM.
“CCTCTTCTGGTAGGAAACTTTCCTATCAGT (double strand) [csnA-WT]”: the IC50 in data set [1] (unlabeled competitor vs 0.03 nM labeled csnA-WT, SE logIC50 0.11) was 1.3 nM. In data set [2] (SE 0.009 nM), this sequence displayed a Kd of 0.032 nM.
For the sequence “CTCCAGCCAACAGGAAACTTTCCTAACAGA (double strand) [csnR-WT]”, the dissociation constant (Kd) in data set [2] (SE 0.008 nM) came out at 0.04 nM.

(Values after patent US20130210077.)
